Target: T1, fibrinogen (Homo sapiens, UniProt P02675+P02679)
T1 construct: then loaded with heparinized plasma (40 ml); from tissue; host or cells: heparinized plasma
Experiment: Specifity of the coupled Sepharose by SDS gel electrophoresis
Assay type: binding
Conditions: statement in the description
Description: The pentapeptide Gly-Pro-Arg-Pro-Lys was synthetized as trifluoracetate and coupled to cyanobromide-active Sepharose CL-4B. The specifity of the coupled Sepharose was tested by means of SDS gel electrophoresis.

T1 sequence (P02671 20-629 partner limits assumed): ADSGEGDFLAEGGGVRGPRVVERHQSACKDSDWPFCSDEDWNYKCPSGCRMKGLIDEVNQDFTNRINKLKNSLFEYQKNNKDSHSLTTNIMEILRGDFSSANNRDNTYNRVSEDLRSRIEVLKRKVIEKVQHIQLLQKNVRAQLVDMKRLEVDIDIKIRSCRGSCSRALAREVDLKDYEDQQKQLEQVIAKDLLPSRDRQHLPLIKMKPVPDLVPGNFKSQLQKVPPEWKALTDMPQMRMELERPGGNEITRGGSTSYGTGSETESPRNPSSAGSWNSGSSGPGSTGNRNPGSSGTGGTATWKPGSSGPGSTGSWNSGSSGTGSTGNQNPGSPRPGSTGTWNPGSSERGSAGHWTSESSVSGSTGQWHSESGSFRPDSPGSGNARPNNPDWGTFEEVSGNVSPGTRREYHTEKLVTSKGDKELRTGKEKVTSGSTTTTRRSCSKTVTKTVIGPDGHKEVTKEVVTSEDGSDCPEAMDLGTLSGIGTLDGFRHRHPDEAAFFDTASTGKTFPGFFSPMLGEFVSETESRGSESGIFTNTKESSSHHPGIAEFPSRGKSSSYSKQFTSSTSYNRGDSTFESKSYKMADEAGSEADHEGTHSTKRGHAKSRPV
T1 sequence (P02675 31-491): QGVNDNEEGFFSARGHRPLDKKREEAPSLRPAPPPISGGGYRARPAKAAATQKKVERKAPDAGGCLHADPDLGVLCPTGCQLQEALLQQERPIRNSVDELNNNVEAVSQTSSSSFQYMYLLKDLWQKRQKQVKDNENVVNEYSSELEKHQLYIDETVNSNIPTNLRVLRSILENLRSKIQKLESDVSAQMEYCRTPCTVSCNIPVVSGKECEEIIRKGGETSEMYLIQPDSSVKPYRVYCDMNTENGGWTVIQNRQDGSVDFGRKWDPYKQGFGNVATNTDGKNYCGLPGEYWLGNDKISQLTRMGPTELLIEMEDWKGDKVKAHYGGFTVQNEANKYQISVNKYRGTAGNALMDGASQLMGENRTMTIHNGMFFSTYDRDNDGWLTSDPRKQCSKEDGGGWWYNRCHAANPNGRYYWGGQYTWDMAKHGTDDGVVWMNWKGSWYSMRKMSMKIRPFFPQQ
T1 sequence (P02679 27-453): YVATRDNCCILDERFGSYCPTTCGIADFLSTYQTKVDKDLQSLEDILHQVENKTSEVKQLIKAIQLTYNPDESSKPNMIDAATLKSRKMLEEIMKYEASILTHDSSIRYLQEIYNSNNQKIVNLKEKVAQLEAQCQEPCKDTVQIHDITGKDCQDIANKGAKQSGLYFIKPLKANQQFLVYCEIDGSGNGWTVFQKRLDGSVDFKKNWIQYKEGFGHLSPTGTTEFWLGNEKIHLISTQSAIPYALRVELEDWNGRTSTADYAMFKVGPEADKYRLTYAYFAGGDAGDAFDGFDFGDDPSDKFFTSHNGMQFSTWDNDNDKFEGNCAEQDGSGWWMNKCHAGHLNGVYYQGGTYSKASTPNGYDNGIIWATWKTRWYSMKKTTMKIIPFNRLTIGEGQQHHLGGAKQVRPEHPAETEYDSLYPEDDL

specifity for fibrinogen and/or fibrin: very high specifity
Substance: Gly-Pro-Arg-Pro-Lys (GPRPK; printed: Gly-Pro-Arg-Pro-Lys) [pentapeptide ligand for fibrinogen and/or fibrin]

From patent publication US20070253967A1, “Agent for the treatment and/or prophylaxis of microcirculatory disorders” (priority 1997, published 2007)
